Reference: publication PMC6916386

B1: Single stranded nucleic acid binding protein (Sbp1), wild type, galactose-inducible with ZZ (protein A) tag, from wild-type yeast R153 [modified: arginine-methylated in yeast … (parent)
chain 1: MSAEIEEATNAVNNLSINDSEQQPRAPTHKTVIDPEDTIFIGNVAHECTEDDLKQLFVEEFGDEVSVEIPIKEHTDGHIPASKHALVKFPTKIDFDNIKENYDTKVVKDREIHIKRARTPGQMQRGGFRGRGGFRGRGGFRGGFRGGYRGGFRGRGNFRGRGGARGGFNGQKREKIPLDQMERSKDTLYINNVPFKATKEEVAEFFGTDADSISLPMRKMRDQHTGRIFTSDSANRGMAFVTFSGENVDIEAKAEEFKGKVFGDRELTVDVAVIRPENDEEEIEQETGSEEKQE
chain 2: MTDETAHPTQSASKQESAALKQTGDDQQESQQQRGYTNYNNGSNYTQKKPYNSNRPHQQRGGKFGPNRYNNRGNYNGGGSFRGGHMGANSSNVPWTGYYNNYPVYYQPQQMAAAGSAPANPIPVEEKSPVPTKIEITTKSGEHLDLKEQHKAKLQSQERSTVSPQPESKLKETSDSTSTSTPTPTPSTNDSKASSEENISEAEKTRRNFIEQVKLRKAALEKKRKEQLEGSSGNNNIPMKTTPENVEEKGSDKPEVTEKTKPAEEKSAEPEVKQETPAEEGEQGEKGQIKEESTPKVLTFAERLKLKKQQKEREEKTEGKENKEVPVQEETKSAIESAPVPPSEQVKEETEVAETEQSNIDESATTPAIPTKSDEAEAEVEAEAGDAGTKIGLEAEIETTTDETDDGTNTVSHILNVLKDATPIEDVFSFNYPEGIEGPDIKYKKEHVKYTYGPTFLLQFKDKLNVKADAEWVQSTASKIVIPPGMGRGNRSRDSGRFGNNSSRGHDFRNTSVRNMDDRANSRTSSKRRSKRMNDDRRSNRSYTSRRDRERGSYRNEEKREDDKPKEEVAPLVPSANRWVPKFKSKKTEKKLAPDGKTELLDKDEVERKMKSLLNKLTLEMFDAISSEILAIANISVWETNGETLKAVIEQIFLKACDEPHWSSMYAQLCGKVVKELNPDITDETNEGKTGPKLVLHYLVARCHAEFDKGWTDKLPTNEDGTPLEPEMMSEEYYAAASAKRRGLGLVRFIGFLYRLNLLTGKMMFECFRRLMKDLTDSPSEETLESVVELLNTVGEQFETDSFRTGQATLEGSQLLDSLFGILDNIIQTAKISSRIKFKLIDIKELRHDKNWNSDKKDNGPKTIQQIHEEEERQRQLKNNSRSNSRRTNNSSNRHSFRRDAPPASKDSFITTRTYSQRNSQRAPPPKEEPAAPTSTATNMFSALMGESDDEE

Variants of: B1
Experiment: glutathione pull-down, PAP blot band quantified
Settings: with eukaryotic translation initiation factor 4G1 fused to GST (eIF4G1-GST) [yeast]; purified eIF4G1-GST incubated with yeast lysate; n = 3; parent: 100; read off a plot

Row | percent of parent [% binding] | Variant
1 | 25 | chain 1 R125A R129A R131A R135A R137A R141A R145A R149A R153A R155A R159A R161A R165A
